Reference: the supplement of paper PMC7877785
± gives the uncertainty stated by the source.

Assay: self-splicing fitness, log relative to wild type (ln ratio); higher = more splicing; Tetrahymena group I intron in knt gene, E. coli kanamycin selection, DiMSum; sequences stand for … in CUCUCU…GGAGGGAAAAGUUAUCAGGCAUGCACCUGGUAGCUAGUCUUUAAACCAAUAGAUUGCAUCGGUUUAAAAGGCAAGACCGUCAAAUUGCGGGAAAGGGGUCAACAGCCGUUCAGUACCAAGUCUCAGGGGAAACUUUGAGAUGGCCUUGCAAAGGGUAUGGUAAUAAGCUGACGGACAUGGUCCUAACCACGCAGCCAAGUCCUAAGUCAACAGAUCUUCUGUUGAUAUGGAUGCAGUUCACAGACUAAAUGUCGGUCGGGGAAGAUGUAUUCUUCUCAUAAGAUAUAGUCGGACCUCUCCUUAAUGGGAGCUAGCGGAUGAAGUGAUGCAACACUGGAGCCGCUGGGAACUAAUUUGUAUGCGAAAGUAUAUUGAUUAGUUUUGGAGUACUCGUGGUCG
Outline: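 Colonies from six replicate transformations of E. coli BL21(DE3) were pooled and amplicon-sequenced on an Illumina HiSeq 2500. The library placed an intron with all eight P1ex-region nucleotides randomised inside the knt kanamycin-resistance gene on pET-22b(+), and cells grew overnight at 37°C or 30°C on LB agar with or without 25 μg/mL kanamycin (plus 100 μg/mL carbenicillin, 50 μM IPTG, 0.2% rhamnose). Fitness is the DiMSum error-weighted combination of wild-type-normalised replicate fold changes, kanamycin versus none.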

Row | Sequence | self-splicing fitness (ln) (30 °C) | self-splicing fitness (ln) (37 °C)
1 | GUCGAGCAAUAUUACGUUCA | -0.837 ± 0.084 | -0.462 ± 0.086
2 | GUCGAGCAAUAUUACGUUUG | -2.54 ± 0.28 | -2.11 ± 0.24
3 | GUCUAGCAAUAUUACGAAAA | -2.3 ± 0.26 | -1.26 ± 0.22
4 | GUCUAGCAAUAUUACGAAAG | – | -2.42 ± 0.39
5 | GUCUAGCAAUAUUACGAGAA | -1.8 ± 0.39 | -0.829 ± 0.27
6 | GUCUAGCAAUAUUACGAGAG | -2.4 ± 0.17 | -1.33 ± 0.12
7 | GUCUAGCAAUAUUACGAGCA | -1.29 ± 0.24 | -0.906 ± 0.24
8 | GUCUAGCAAUAUUACGAUAG | – | -2.96 ± 0.27
9 | GUCUAGCAAUAUUACGAUAU | -0.897 ± 0.12 | -0.0984 ± 0.12
10 | GUCUAGCAAUAUUACGCCUG | – | -3.47 ± 0.41
11 | GUCUAGCAAUAUUACGGAUC | -1.99 ± 0.28 | -1.85 ± 0.27
12 | GUCUAGCAAUAUUACGGCAG | – | -1.72 ± 0.44
13 | GUCUAGCAAUAUUACGGCCA | -1.87 ± 0.35 | -0.587 ± 0.22
14 | GUCUAGCAAUAUUACGGCCC | -2.32 ± 0.39 | 0.974 ± 0.31
15 | GUCUAGCAAUAUUACGGGAC | – | -1.65 ± 0.45
16 | GUCUAGCAAUAUUACGGUAA | -1.67 ± 0.11 | -0.172 ± 0.11
17 | GUCUAGCAAUAUUACGGUGG | -2.87 ± 0.17 | -3.96 ± 0.46
18 | GUCUAGCAAUAUUACGUACU | -0.946 ± 0.11 | -0.0535 ± 0.1
19 | GUCUAGCAAUAUUACGUAGA | -1.69 ± 0.14 | -0.93 ± 0.2
20 | GUCUAGCAAUAUUACGUAGC | -1.45 ± 0.15 | 0.302 ± 0.2
21 | GUCUAGCAAUAUUACGUCCU | -0.102 ± 0.16 | -0.136 ± 0.14
22 | GUGAAGCAAUAUUACGAACA | -0.242 ± 0.076 | 0.0414 ± 0.11
23 | GUGAAGCAAUAUUACGAAGG | -1.91 ± 0.14 | -0.854 ± 0.17
24 | GUGAAGCAAUAUUACGACAC | -1.1 ± 0.12 | 0.386 ± 0.18
25 | GUGAAGCAAUAUUACGAGAG | -2.92 ± 0.11 | -1.7 ± 0.1
26 | GUGAAGCAAUAUUACGAGGG | -3.74 ± 0.25 | -1.29 ± 0.13

Row | Sequence | self-splicing fitness (ln) (30 °C) | self-splicing fitness (ln) (37 °C)
27 | GUGAAGCAAUAUUACGAUUA | 0.198 ± 0.084 | -0.124 ± 0.13
28 | GUGAAGCAAUAUUACGCAGU | -2.6 ± 0.22 | -1.02 ± 0.19
29 | GUGAAGCAAUAUUACGCCAC | -2.66 ± 0.5 | –
30 | GUGAAGCAAUAUUACGCCUU | -0.0499 ± 0.15 | -0.45 ± 0.17
31 | GUGAAGCAAUAUUACGCGUU | -3.59 ± 0.2 | -2.02 ± 0.21
32 | GUGAAGCAAUAUUACGCUUC | -4.23 ± 0.32 | -2.41 ± 0.3
33 | GUGAAGCAAUAUUACGGCAG | -2.32 ± 0.13 | -1.06 ± 0.16
34 | GUGAAGCAAUAUUACGGCGU | 0.663 ± 0.12 | 0.727 ± 0.15
35 | GUGAAGCAAUAUUACGGUAG | -1.79 ± 0.087 | -0.687 ± 0.1
36 | GUGAAGCAAUAUUACGGUCA | -0.465 ± 0.11 | 0.46 ± 0.12
37 | GUGAAGCAAUAUUACGGUCG | -0.124 ± 0.063 | -0.0595 ± 0.085
38 | GUGAAGCAAUAUUACGUAUA | -1.53 ± 0.077 | -0.347 ± 0.1
39 | GUGAAGCAAUAUUACGUGCA | 0.391 ± 0.085 | -0.0531 ± 0.11
40 | GUGCAGCAAUAUUACGAAAC | -1.82 ± 0.1 | -1.26 ± 0.095
41 | GUGCAGCAAUAUUACGACCG | -2.18 ± 0.2 | -1.5 ± 0.27
42 | GUGCAGCAAUAUUACGACCU | -1.51 ± 0.27 | -0.504 ± 0.24
43 | GUGCAGCAAUAUUACGAGCG | -0.973 ± 0.072 | -0.518 ± 0.083
44 | GUGCAGCAAUAUUACGCCGG | -2.21 ± 0.41 | –
45 | GUGCAGCAAUAUUACGCCUC | -0.807 ± 0.17 | 0.123 ± 0.21
46 | GUGCAGCAAUAUUACGCGCC | -3.58 ± 0.4 | -1.95 ± 0.33
47 | GUGCAGCAAUAUUACGCGGG | -2.81 ± 0.36 | -1.03 ± 0.2
48 | GUGCAGCAAUAUUACGGAAG | -3.19 ± 0.24 | -1.77 ± 0.25
49 | GUGCAGCAAUAUUACGGGAC | -2.09 ± 0.19 | -2.82 ± 0.48
50 | GUGCAGCAAUAUUACGGGCA | -2.08 ± 0.15 | -1.23 ± 0.15
51 | GUGCAGCAAUAUUACGGGUC | -2.38 ± 0.13 | -0.803 ± 0.14
52 | GUGCAGCAAUAUUACGGUGA | -0.753 ± 0.095 | 0.095 ± 0.12

Row | Sequence | self-splicing fitness (ln) (30 °C) | self-splicing fitness (ln) (37 °C)
53 | GUGCAGCAAUAUUACGUCAA | -1.6 ± 0.15 | -0.634 ± 0.12
54 | GUGCAGCAAUAUUACGUUAC | -3.66 ± 0.33 | -2.93 ± 0.38
55 | GUGGAGCAAUAUUACGAAAU | -4.22 ± 0.36 | -2.05 ± 0.29
56 | GUGGAGCAAUAUUACGAGUU | – | -1.7 ± 0.43
57 | GUGGAGCAAUAUUACGAUUU | -1.07 ± 0.27 | -1.29 ± 0.29
58 | GUGGAGCAAUAUUACGCACU | 0.427 ± 0.33 | –
59 | GUGGAGCAAUAUUACGCAGU | -2.88 ± 0.18 | -2.58 ± 0.31
60 | GUGGAGCAAUAUUACGCGUA | -2.14 ± 0.36 | -0.34 ± 0.25
61 | GUGGAGCAAUAUUACGGCAA | – | -1.55 ± 0.35
62 | GUGGAGCAAUAUUACGGCGG | -3.32 ± 0.29 | -1.54 ± 0.27
63 | GUGGAGCAAUAUUACGUAUU | -3.11 ± 0.17 | -1.68 ± 0.21
64 | GUGGAGCAAUAUUACGUCUC | -3.56 ± 0.15 | -2.77 ± 0.16
65 | GUGUAGCAAUAUUACGAACG | -1.76 ± 0.16 | -0.988 ± 0.23
66 | GUGUAGCAAUAUUACGAAUA | -1.91 ± 0.39 | -1.39 ± 0.43
67 | GUGUAGCAAUAUUACGACAA | -0.665 ± 0.14 | -0.365 ± 0.21
68 | GUGUAGCAAUAUUACGACAU | -2.608 ± 0.022 | -1.52 ± 0.037
69 | GUGUAGCAAUAUUACGAGCC | -2.65 ± 0.38 | -2.28 ± 0.31
70 | GUGUAGCAAUAUUACGAGCU | -2.36 ± 0.17 | -0.678 ± 0.21
71 | GUGUAGCAAUAUUACGAUGU | -1.36 ± 0.12 | -0.234 ± 0.14
72 | GUGUAGCAAUAUUACGCACU | -2.59 ± 0.41 | -2.13 ± 0.33
73 | GUGUAGCAAUAUUACGCAUA | -2.5 ± 0.21 | -1.31 ± 0.19
74 | GUGUAGCAAUAUUACGCAUG | -2.88 ± 0.27 | -2.67 ± 0.41
75 | GUGUAGCAAUAUUACGCCCA | – | -0.199 ± 0.35
76 | GUGUAGCAAUAUUACGCCGC | -3 ± 0.46 | -2.79 ± 0.44
77 | GUGUAGCAAUAUUACGGCAA | -0.687 ± 0.17 | -0.481 ± 0.23
78 | GUGUAGCAAUAUUACGGGAA | -2.77 ± 0.19 | -1.74 ± 0.2
